B1: Translocated intimin receptor Tir (Escherichia coli O157:H7), Q7DB77 (parent)
chain: MPIGNLGHNPNVNNSIPPAPPLPSQTDGAGGRGQLINSTGPLGSRALFTPVRNSMADSGDNRASDVPGLPVNPMRLAASEITLNDGFEVLHDHGPLDTLNRQIGSSVFRVETQEDGKHIAVGQRNGVETSVVLSDQEYARLQSIDPEGKDKFVFTGGRGGAGHAMVTVASDITEARQRILELLEPKGTGESKGAGESKGVGELRESNSGAENTTETQTSTSTSSLRSDPKLWLALGTVATGLIGLAATGIVQALALTPEPDSPTTTDPDAAASATETATRDQLTKEAFQNPDNQKVNIDELGNAIPSGVLKDDVVANIEEQAKAAGEEAKQQAIENNAQAQKKYDEQQAKRQEELKVSSGAGYGLSGALILGGGIGVAVTAALHRKNQPVEQTTTTTTTTTTTSARTVENKPANNTPAQGNVDTPGSEDTMESRRSSMASTSSTFFDTSSIGTVQNPYADVKTSLHDSQVPTSNSNTSVQNMGNTDSVVYSTIQHPPRDTTDNGARLLGNPSAGIQSTYARLALSGGLRHDMGGLTGGSNSAVNTSNNPPAPGSHRFV
B2: BAR/IMD domain-containing adapter protein 2 (Homo sapiens), Q9UQB8-4 (parent)
chain: MSLSRSEEMHRLTENVYKTIMEQFNPSLRNFIAMGKNYEKALAGVTYAAKGYFDALVKMGELASESQGSKELGDVLFQMAEVHRQIQNQLEEMLKSFHNELLTQLEQKVELDSRYLSAALKKYQTEQRSKGDALDKCQAELKKLRKKSQGSKNPQKYSDKELQYIDAISNKQGELENYVSDGYKTALTEERRRFCFLVEKQCAVAKNSAAYHSKGKELLAQKLPLWQQACADPSKIPERAVQLMQQVASNGATLPSALSASKSNLVISDPIPGAKPLPVPPELAPFVGRMSAQESTPIMNGVTGPDGEDYSPWADRKAAQPKSLSPPQSQSKLSDSYSNTLPVRKSVTPKNSYATTENKTLPRSSSMAAGLERNGRMRVKAIFSHAAGDNSTLLSFKEGDLITLLVPEARDGWHYGESEKTKMRGWFPFSYTRVLDSDGSDRLHMSLQQGKSSSTGNLLDKDDLAIPPPDYGAASRAFPAQTASGFKQRPYSVAVPAFSQGLDDYGARSMSSGSGTLVSTV

The experiment “BAIAP2, Q9UQB8-4” covers variants of B1. The following applies: with BAIAP2, Q9UQB8-4.
Variants of B2 are the subject of experiment [1]. The following applies: with tir_eco27 tir.
The variants in experiment [2] derive from B2. The settings on record: with tir_eco57 tir.
Experiment [3] covers variants of B2. The settings on record: with tir_eco57 tir. This is another data set of the same source.
Variants of B2 are the subject of experiment [4]. The settings on record: with tir_eco27 tir. The source holds these as a separate data set.
In experiment [5] the parent is B2. The following applies: with tir_eco57 tir. The source holds these as a separate data set.

On to Y458F, for which the “effect of a mutation on the interaction” value with BAIAP2, Q9UQB8-4 is reported as “disrupting interaction”.
With MSLSRSEEMHRLTENVYKTIMEQFNPSLRNFIAMGKNYEKALAGVTYAAKGYFDALVKMGELASESQGSKELGDVLFQMAEVHRQIQNQLEEMLKSFHNELLTQLEQKVELDSRYLSAALKKYQTEQRSKGDALDKCQAELKKLRKKSQGSKNPQKYSDKELQYIDAISNKQGELENYVSDGYKTALTEERRSFCFLVEKQCAVAKNSAAYHSKGKELLAQKLPLWQQACADPSKIPERAVQLMQQVASNGATLPSALSASKSNLVISDPIPGAKPLPVPPELAPFVGRMSAQESTPIMNGVTGPDGEDYSPWADRKAAQPKSLSPPQSQSKLSDSYSNTLPVRKSVTPKNSYATTENKTLPRSSSMAAGLERNGRMRVKAIFSHAAGDNSTLLSFKEGDLITLLVPEARDGWHYGESEKTKMRGWFPFSYTRVLDSDGSDRLHMSLQQGKSSSTGNLLDKDDLAIPPPDYGAASRAFPAQTASGFKQRPYSVAVPAFSQGLDDYGARSMSSGSGTLVSTV [R193S], the “effect of a mutation on the interaction” value with tir_eco27 tir, B7UM99 [1] is “disrupting interaction”; with tir_eco57 tir, Q7DB77 [2] it was “disrupting interaction”.
Regarding MSLSRSEEMHRLTENVYKTIMEQFNPSLRNFIAMGKNYEKALAGVTYAAKGYFDALVKMGELASESQGSKELGDVLFQMAEVHRQIQNQLEEMLKSFHNELLTQLEQAVELDSRYLSAALKKYQTEQRSKGDALDKCQAELKKLRKKSQGSKNPQKYSDKELQYIDAISNKQGELENYVSDGYKTALTEERRSFCFLVEKQCAVAKNSAAYHSKGKELLAQKLPLWQQACADPSKIPERAVQLMQQVASNGATLPSALSASKSNLVISDPIPGAKPLPVPPELAPFVGRMSAQESTPIMNGVTGPDGEDYSPWADRKAAQPKSLSPPQSQSKLSDSYSNTLPVRKSVTPKNSYATTENKTLPRSSSMAAGLERNGRMRVKAIFSHAAGDNSTLLSFKEGDLITLLVPEARDGWHYGESEKTKMRGWFPFSYTRVLDSDGSDRLHMSLQQGKSSSTGNLLDKDDLAIPPPDYGAASRAFPAQTASGFKQRPYSVAVPAFSQGLDDYGARSMSSGSGTLVSTV [K108A;R193S], the “effect of a mutation on the interaction” value is “disrupting interaction” in the experiment with tir_eco27 tir, B7UM99 [1] and “disrupting interaction” with tir_eco57 tir, Q7DB77 [3].
MSLSRSEEMHRLTENVYKTIMEQFNPSLRNFIAMGKNYEKALAGVTYAAKGYFDALVKMGELASESQGSKELGDVLFQMAEVHRQIQNQLEEMLKSFHNELLTQLEQAVELDSRYLSAALKKYQTEQRSKGDALDKCQAELKKLRKKSQGSKNPQKYSDKELQYIDAISNKQGELENYVSDGYKTALTEERRRFCFLVEKQCAVAKNSAAYHSKGKELLAQKLPLWQQACADPSKIPERAVQLMQQVASNGATLPSALSASKSNLVISDPIPGAKPLPVPPELAPFVGRMSAQESTPIMNGVTGPDGEDYSPWADRKAAQPKSLSPPQSQSKLSDSYSNTLPVRKSVTPKNSYATTENKTLPRSSSMAAGLERNGRMRVKAIFSHAAGDNSTLLSFKEGDLITLLVPEARDGWHYGESEKTKMRGWFPFSYTRVLDSDGSDRLHMSLQQGKSSSTGNLLDKDDLAIPPPDYGAASRAFPAQTASGFKQRPYSVAVPAFSQGLDDYGARSMSSGSGTLVSTV [K108A]: the “effect of a mutation on the interaction” value with tir_eco27 tir, B7UM99 [4] is on record as “disrupting interaction”; with tir_eco57 tir, Q7DB77 [5], “disrupting interaction”.
On to MSLSRSEEMHRLTENVYKTIMEQFNPSLRNFIAMGKNYEKALAGVTYAAKGYFDALVKMGELASESQGSKELGDVLFQMAEVHRQIQNQLEEMLKSFHNELLTQLEQAVELDSRYLSAALKKYQTEQRSKGDALDKCQAELKKLRKKSQGSKNPQKYSDKELQYIDAISNKQGELENYVSDGYKTALTEERRRFCALVEKQCAVAKNSAAYHSKGKELLAQKLPLWQQACADPSKIPERAVQLMQQVASNGATLPSALSASKSNLVISDPIPGAKPLPVPPELAPFVGRMSAQESTPIMNGVTGPDGEDYSPWADRKAAQPKSLSPPQSQSKLSDSYSNTLPVRKSVTPKNSYATTENKTLPRSSSMAAGLERNGRMRVKAIFSHAAGDNSTLLSFKEGDLITLLVPEARDGWHYGESEKTKMRGWFPFSYTRVLDSDGSDRLHMSLQQGKSSSTGNLLDKDDLAIPPPDYGAASRAFPAQTASGFKQRPYSVAVPAFSQGLDDYGARSMSSGSGTLVSTV [K108A;F196A], for which the “effect of a mutation on the interaction” value is listed as “disrupting interaction” in the experiment with tir_eco27 tir, B7UM99 [1] and “disrupting interaction” in the experiment with tir_eco57 tir, Q7DB77 [3].
Turning to MSLSRSEEMHRLTENVYKTIMEQFNPSERNFIAMGKNYEKALAGVTYAAKGYFDALVKMGELASESQGSKELGDVLFQMAEVHRQIQNQLEEMLKSFHNELLTQLEQKVELDSRYLSAALKKYQTEQRSKGDALDKCQAELKKLRKKSQGSKNPQKYSDKELQYIDAISNKQGELENYVSDGYKTALTEERRRFCFLVEKQCAVAKNSAAYHSKGKELLAQKLPLWQQACADPSKIPERAVQLMQQVASNGATLPSALSASKSNLVISDPIPGAKPLPVPPELAPFVGRMSAQESTPIMNGVTGPDGEDYSPWADRKAAQPKSLSPPQSQSKLSDSYSNTLPVRKSVTPKNSYATTENKTLPRSSSMAAGLERNGRMRVKAIFSHAAGDNSTLLSFKEGDLITLLVPEARDGWHYGESEKTKMRGWFPFSYTRVLDSDGSDRLHMSLQQGKSSSTGNLLDKDDLAIPPPDYGAASRAFPAQTASGFKQRPYSVAVPAFSQGLDDYGARSMSSGSGTLVSTV [L28E], the “effect of a mutation on the interaction” value is “disrupting interaction” in the experiment with tir_eco27 tir, B7UM99 [1] and “disrupting interaction” with tir_eco57 tir, Q7DB77 [2].
With MSLSRSEEMHRLTENVYKTIMEQFNPSLRNFIAMGKNYEKALAGVTYAAKGYFDALVKMGELASESQGSKELGDVLFQMAEVHRQIQNQLEEMLKSFHNELLTQLEQKVELDSRYLSAALKKYQTEQRSKGDALDKCQAELKKLRKKSQGSKNPQKYSDKELQYIDAISNKQGELENYVSDGYKTALTEERRRFCALVEKQCAVAKNSAAYHSKGKELLAQKLPLWQQACADPSKIPERAVQLMQQVASNGATLPSALSASKSNLVISDPIPGAKPLPVPPELAPFVGRMSAQESTPIMNGVTGPDGEDYSPWADRKAAQPKSLSPPQSQSKLSDSYSNTLPVRKSVTPKNSYATTENKTLPRSSSMAAGLERNGRMRVKAIFSHAAGDNSTLLSFKEGDLITLLVPEARDGWHYGESEKTKMRGWFPFSYTRVLDSDGSDRLHMSLQQGKSSSTGNLLDKDDLAIPPPDYGAASRAFPAQTASGFKQRPYSVAVPAFSQGLDDYGARSMSSGSGTLVSTV [F196A], the “effect of a mutation on the interaction” value with tir_eco27 tir, B7UM99 [4] is given as “disrupting interaction”; with tir_eco57 tir, Q7DB77 [5], “disrupting interaction”; with tir_eco27 tir, B7UM99 [1] it was “decreasing interaction”; with tir_eco57 tir, Q7DB77 [2], “decreasing interaction”.

(Values after IntAct's records for PubMed 21893288.)
